Source: patent publication US20050250692A1
Values belong to the substance of their own block, whether it stands above or below them.

What was measured:
[1] = target: IGF-I receptor of Mv1Lu cells (mink); experiment: cell-based or functional assay
[2] = target: acidic pH binding sites of Mv1Lu cells; experiment: inhibition of 125I-α2M* binding to Mv1Lu cells at pH 5 or 6
[3] = target: LRP-1 in mouse embryonic fibroblasts (MEF cells) (mouse) (UniProt Q91ZX7); experiment: co-immunoprecipitation with anti-annexin VI IgG from lysates of MEF cells carrying cell surface-bound 125I-α2M* (1 nM, pH 7.4)
Sequence of LRP-1 in mouse embryonic fibroblasts (MEF cells) (mouse) (Q91ZX7 20-4545): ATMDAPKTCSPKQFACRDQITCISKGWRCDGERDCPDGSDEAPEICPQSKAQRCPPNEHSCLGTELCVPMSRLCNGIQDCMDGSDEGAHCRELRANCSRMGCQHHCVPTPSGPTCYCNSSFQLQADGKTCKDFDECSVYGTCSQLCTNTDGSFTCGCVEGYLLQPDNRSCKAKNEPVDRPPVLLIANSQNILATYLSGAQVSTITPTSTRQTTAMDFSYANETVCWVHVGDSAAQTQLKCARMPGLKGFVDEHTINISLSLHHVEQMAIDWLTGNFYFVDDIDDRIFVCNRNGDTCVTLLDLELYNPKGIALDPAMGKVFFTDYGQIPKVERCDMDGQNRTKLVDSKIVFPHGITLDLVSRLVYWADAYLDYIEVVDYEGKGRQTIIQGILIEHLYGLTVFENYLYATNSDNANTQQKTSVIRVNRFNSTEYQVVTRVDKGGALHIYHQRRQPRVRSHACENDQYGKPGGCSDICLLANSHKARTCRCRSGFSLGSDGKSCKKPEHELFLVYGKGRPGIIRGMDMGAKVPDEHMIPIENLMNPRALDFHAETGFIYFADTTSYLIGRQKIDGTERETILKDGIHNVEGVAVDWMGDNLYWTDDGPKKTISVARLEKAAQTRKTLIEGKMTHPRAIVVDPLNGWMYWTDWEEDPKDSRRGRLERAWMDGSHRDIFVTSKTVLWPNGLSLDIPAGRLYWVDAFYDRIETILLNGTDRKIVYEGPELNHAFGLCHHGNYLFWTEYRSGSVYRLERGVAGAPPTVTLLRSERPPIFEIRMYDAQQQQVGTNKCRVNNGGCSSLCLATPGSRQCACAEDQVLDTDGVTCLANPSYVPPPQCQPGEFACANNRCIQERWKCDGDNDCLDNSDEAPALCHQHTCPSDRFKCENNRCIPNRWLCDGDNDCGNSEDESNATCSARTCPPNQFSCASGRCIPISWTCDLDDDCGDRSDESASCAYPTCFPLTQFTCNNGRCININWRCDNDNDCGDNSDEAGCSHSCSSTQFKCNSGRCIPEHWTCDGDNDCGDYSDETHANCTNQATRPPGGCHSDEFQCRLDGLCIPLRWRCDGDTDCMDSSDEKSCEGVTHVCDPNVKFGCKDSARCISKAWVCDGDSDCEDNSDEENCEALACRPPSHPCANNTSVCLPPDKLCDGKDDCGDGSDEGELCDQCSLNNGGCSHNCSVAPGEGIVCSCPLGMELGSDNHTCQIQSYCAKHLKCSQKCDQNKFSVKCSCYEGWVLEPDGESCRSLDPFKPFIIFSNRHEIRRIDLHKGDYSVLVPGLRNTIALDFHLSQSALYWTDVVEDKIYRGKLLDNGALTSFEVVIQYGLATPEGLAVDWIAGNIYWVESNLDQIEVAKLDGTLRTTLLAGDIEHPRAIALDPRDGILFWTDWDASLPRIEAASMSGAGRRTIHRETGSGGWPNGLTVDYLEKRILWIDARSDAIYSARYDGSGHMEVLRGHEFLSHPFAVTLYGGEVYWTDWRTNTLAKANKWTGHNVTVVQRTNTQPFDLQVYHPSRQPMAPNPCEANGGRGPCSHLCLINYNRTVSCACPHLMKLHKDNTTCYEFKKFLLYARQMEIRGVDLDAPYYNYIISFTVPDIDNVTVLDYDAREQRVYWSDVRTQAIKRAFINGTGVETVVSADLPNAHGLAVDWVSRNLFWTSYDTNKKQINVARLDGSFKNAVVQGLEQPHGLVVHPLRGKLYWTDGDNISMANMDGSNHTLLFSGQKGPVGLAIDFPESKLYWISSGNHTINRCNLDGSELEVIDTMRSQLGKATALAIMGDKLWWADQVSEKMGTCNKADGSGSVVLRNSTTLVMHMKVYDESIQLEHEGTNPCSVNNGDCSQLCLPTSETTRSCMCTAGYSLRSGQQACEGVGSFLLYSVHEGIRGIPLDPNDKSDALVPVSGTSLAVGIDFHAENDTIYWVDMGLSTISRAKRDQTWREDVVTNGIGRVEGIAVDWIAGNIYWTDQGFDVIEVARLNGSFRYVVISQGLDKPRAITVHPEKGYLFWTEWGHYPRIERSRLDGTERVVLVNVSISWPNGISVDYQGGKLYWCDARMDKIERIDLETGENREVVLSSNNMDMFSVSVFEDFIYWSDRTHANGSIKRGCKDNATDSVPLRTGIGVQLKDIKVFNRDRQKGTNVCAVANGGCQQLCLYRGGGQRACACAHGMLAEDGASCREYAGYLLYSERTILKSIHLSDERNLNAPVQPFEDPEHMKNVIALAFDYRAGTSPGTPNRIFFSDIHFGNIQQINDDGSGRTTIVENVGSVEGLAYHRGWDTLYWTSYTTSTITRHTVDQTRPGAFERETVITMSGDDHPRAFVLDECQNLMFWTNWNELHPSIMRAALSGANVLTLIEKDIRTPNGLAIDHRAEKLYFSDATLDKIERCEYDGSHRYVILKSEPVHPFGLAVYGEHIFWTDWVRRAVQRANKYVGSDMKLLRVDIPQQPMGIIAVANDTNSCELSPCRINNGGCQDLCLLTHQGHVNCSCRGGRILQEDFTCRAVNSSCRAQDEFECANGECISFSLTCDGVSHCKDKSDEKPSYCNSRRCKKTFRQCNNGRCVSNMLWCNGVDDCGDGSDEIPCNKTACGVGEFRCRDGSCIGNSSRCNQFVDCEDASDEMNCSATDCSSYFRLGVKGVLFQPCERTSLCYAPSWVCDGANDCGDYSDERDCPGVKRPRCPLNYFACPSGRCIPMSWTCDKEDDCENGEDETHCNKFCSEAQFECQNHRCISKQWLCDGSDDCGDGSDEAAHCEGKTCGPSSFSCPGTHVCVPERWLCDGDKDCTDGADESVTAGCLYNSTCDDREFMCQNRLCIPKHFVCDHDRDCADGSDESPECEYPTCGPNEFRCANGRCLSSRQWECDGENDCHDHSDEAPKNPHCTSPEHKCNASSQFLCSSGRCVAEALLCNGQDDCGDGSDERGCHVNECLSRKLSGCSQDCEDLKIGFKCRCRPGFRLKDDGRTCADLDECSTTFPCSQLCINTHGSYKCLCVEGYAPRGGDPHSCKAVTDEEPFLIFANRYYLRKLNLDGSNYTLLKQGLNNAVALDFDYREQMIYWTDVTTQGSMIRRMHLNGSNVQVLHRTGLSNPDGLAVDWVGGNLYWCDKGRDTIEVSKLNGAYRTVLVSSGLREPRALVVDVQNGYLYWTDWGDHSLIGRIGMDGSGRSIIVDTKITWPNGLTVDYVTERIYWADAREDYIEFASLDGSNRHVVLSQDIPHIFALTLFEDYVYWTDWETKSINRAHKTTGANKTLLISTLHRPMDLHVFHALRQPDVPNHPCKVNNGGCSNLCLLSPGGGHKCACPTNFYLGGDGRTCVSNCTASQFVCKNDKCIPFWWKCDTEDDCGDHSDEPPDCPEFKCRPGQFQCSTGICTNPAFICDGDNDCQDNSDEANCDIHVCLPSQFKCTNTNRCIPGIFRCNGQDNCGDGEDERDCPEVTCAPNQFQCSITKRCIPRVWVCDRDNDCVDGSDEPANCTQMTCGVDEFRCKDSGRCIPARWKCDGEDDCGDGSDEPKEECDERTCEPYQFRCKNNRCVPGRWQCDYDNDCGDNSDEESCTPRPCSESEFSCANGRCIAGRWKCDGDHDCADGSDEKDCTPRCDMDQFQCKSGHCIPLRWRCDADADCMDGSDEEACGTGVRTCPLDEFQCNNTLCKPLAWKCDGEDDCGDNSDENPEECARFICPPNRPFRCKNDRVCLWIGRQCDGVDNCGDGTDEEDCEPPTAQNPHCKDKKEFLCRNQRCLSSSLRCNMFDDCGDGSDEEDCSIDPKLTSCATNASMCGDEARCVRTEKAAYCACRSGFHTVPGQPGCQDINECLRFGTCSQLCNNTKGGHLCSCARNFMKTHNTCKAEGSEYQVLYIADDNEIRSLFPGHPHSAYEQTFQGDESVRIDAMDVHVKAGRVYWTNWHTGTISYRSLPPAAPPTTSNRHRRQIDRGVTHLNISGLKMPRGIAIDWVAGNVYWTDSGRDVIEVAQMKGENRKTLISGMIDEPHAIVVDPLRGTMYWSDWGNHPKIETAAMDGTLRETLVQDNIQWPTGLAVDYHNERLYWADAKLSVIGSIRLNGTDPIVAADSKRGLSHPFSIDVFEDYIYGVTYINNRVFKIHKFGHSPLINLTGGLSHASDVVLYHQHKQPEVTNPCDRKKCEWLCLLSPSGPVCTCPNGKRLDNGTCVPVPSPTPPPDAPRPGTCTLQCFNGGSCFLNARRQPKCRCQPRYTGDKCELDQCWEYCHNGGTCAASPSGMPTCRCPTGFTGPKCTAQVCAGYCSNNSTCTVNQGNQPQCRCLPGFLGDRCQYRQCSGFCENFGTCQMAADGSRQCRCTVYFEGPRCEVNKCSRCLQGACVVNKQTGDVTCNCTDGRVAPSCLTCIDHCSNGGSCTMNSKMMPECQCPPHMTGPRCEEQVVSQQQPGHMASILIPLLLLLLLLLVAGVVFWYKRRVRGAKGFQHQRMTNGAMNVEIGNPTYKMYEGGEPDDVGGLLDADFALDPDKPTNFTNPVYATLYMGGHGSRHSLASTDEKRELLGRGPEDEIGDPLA

[4] = target: acidic pH binding sites of Mv1Lu cells; experiment: inhibition of 125I-α2M* binding to Mv1Lu cells at pH 6
[5] = target: TβR-V/LRP-1 in mink lung epithelial cells (Mv1Lu cells) (mink); experiment: inhibition of 10 nM 125I-IGFBP-3 affinity labeling (binding and DSS cross-linking) of TβR-V on Mv1Lu cells
[6] = target: insulin receptor of Mv1Lu cells (mink); experiment: cell-based or functional assay
[7] = target: acidic pH binding sites of MEF cells; experiment: competition with 125I-α2M* binding to MEF cells at pH 5.5

Substance: (Q^3A^4Y^15L^16) IGF-I (from UniProt P05019 49-118) (ligand)
ED50 for blocking IGFBP-3-induced growth inhibition in Mv1Lu cells [1]: 0.3 nM

Substance: cell surface annexin VI of mouse embryonic fibroblasts (MEF and PEA-13 cells) (from UniProt P14824 2-673) (receptor)
percent of LRP-1-bound 125I-α2M* co-immunoprecipitated by anti-annexin VI IgG [3]: 40%

Substance: human low density lipoprotein (LDL) (from UniProt P04114 28-4563)
IC50 [4]: 5 µg/mL

Substance: insulin (ligand)
ED50 for blocking IGFBP-3-induced inhibition of DNA synthesis in Mv1Lu cells [6]: 1 nM

Substance: native α2M (human) (from UniProt P01023 24-1474) (ligand)
IC50 [7]: 150 nM

More lines, now with the values ahead:

IC50 [2]: 50 nM
Substance: bovine lactoferrin (from UniProt P24627 20-708) (ligand)

IC50 [5]: 5 µg/mL
Substance: human receptor-associated protein (RAP) (from UniProt P30533 35-357) (ligand)

IC50 [2]: 500 nM
Substance: human transferrin (from UniProt P02787 20-698) (ligand)
